B1: TPR t1 (parent)
chain: GACCAAUCUGCCCUCAGAGCUCGAGAACAUCUUCGGAUGCAGAGGAGGCAGGCUUCGGUGGCGCGAUAGCGCCAACGUCCUCAACCUCCAAUGCAUCCCACCACAUGAUGAUGCCUGAAGAGCCUUGGUUUUUUG

Variants of: B1
Assay: polymerase ribozyme fitness, log enrichment relative to wild type (log ratio); higher = more active; in vitro selection for triplet polymerase activity
How it was run: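 A heterodimeric triplet polymerase ribozyme had each of its subunits mutagenized by PCR into a library, which was transcribed. One round of in vitro selection, done in triplicate, annealed each library with a biotinylated primer, its partner subunit and triplets, then incubated it frozen at −7 °C before gel excision of extended constructs, streptavidin-bead capture and RT-PCR. Fitness is the logarithm of genotype enrichment relative to wild-type enrichment, based on Illumina sequencing of inputs and outputs and inverse-variance-weighted replicate averages. A base-2 logarithm is used, and genotypes were kept only with ≥10 input reads and ≥1 read per output.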

Row | Variant | polymerase ribozyme fitness (log ratio)
1 | GACCAAUCUGCCCUCAGAGCUCGAGAACAUCUUCGAAUGCAGAGGAGGCAGGCUUCGGUCGCGCGAUAGCGCCAACGCUCUCAAACUCCGAUGCAUCCCACCACAUGAUGAUGCCUGAAGAGCCUUGGUUUUUUG [G36A G60C U78C C79U C85A A90G] | -3.89
2 | GACCAAUCUGCCCUCAGAGCUCGAGAACAUCUUCGAAUGCAGAGGAGGCAGGCUUCGGUGUCGCGAUAGCGCCAACGUCCUCAACCUCCAAUGCAUCCCACCACAUGAUGAUGCCUGAAGAGCCUUGGUUUUUUG [G36A G61U] | 0.0512
3 | GACCAAUCUGCCCUCAGAGCUCGAGAACAUCUUCGAAUGCAGAGGAGGCAGGCUUCGGUGGCGCGAUAACGCCAACGUCCUCAACCUCCAAUGCAUCCCACCACAUGAUGAUGCCUGAAGAGCCUUGGUUUUUUG [G36A G69A] | -3.69
4 | GACCAAUCUGCCCUCAGAGCUCGAGAACAUCUUCGAAUGCAGAGGAGGCAGGCUUCGGUGGCGCGAUAACGCGAACGUCCUCAACCUCCAAUGCAUCCCACCACAUGAUGAUGCCUGAAAAGCCUUGGUUUUUUG [G36A G69A C73G G120A] | -5.29
5 | GACCAAUCUGCCCUCAGAGCUCGAGAACAUCUUCGAAUGCAGAGGAGGCAGGCUUCGGUGGCGCGAUAGCACCAACGUCCUCAACCUCCAAUGCAUCCCACCACAUGAUGAUGCCUGAAGAGCCUUGGUUUUUUG [G36A G71A] | -1.64
6 | GACCAAUCUGCCCUCAGAGCUCGAGAACAUCUUCGAAUGCAGAGGAGGCAGGCUUCGGUGGCGCGAUAGCACCAACGUCCUCAACCUCCAAUGAAUCCCACCACAUGAUGAUGCCUGAAGAGCCUUGGUUUUUUG [G36A G71A C94A] | -5.5
7 | GACCAAUCUGCCCUCAGAGCUCGAGAACAUCUUCGAAUGCAGAGGAGGCAGGCUUCGGUGGCGCGAUAGCUCCAACGACCUCAACCUCCAAUGCAUCCCACCACAUGAUGAUGCCUGAAGAGCCUUGGUUUUUUG [G36A G71U U78A] | -1.53
8 | GACCAAUCUGCCCUCAGAGCUCGAGAACAUCUUCGAAUGCAGAGGAGGCAGGCUUCGGUGGCGCGAUAGCGCCAACCUCCUCAACCUCCAAUGCAUCCCACCACAUGAUGAUGCCUGAAGAGCCUUGGUUUUUUG [G36A G77C] | -1.72
9 | GACCAAUCUGCCCUCAGAGCUCGAGAACAUCUUCGAAUGCAGAGGAGGCAGGCUUCGGAGGCGCGAUAGCGCCAACGUCCUCAACCUCGAAUGCAUCCCACCACAUGAUGAUGCCUGAAGAGCCUUGGUUUUUUG [G36A U59A C89G] | -3.6
10 | GACCAAUCUGCCCUCAGAGCUCGAGAACAUCUUCGAAUGCAGAGGAGGCAGGCUUCGGUGGCGCGAUAGCGCCAACGUCCUCAACCUCCAAAGCAUCCCACCACAUGAUGAUGCCUGAAGAGCCUUGGUUUUUUG [G36A U92A] | -3.67
11 | GACCAAUCUGCCCUCAGAGCUCGAGAACAUCUUCGAAUGCAGAGGAGGCAGGCUUCGGUGGCGCGAUAGCGCCAACGUCCUCAACCUCCAAUGCAUCCCACCACAUGAUGAUGCCUGAAGAGCCAUGGUUUUUUG [G36A U125A] | -1.27
12 | GACCAAUCUGCCCUCAGAGCUCGAGAACAUCUUCGCAUGCAGAGGAGGCAGGCUUCGGUGGCGCGAUAGCGCCAACGUCCUCAACCUCCAAUGCAUCCCACCACAUGAUGAUGCCUGAAGAGCCUUGGUUUUUUG [G36C] | -1.27
13 | GACCAAUCUGCCCUCAGAGCUCGAGAACAUCUUCGCAUGCAGAGGGGGCAGGCUUCGGUGGCUCGAUAGCGCCAACGUCCUCAAUCUCCAAUGCAUCCCACCACAUGAUGAUGUCUGAAGAGCCUUGGUUUUUUG [G36C A46G G63U C85U C114U] | -5.92
14 | GACCAAUCUGCCCUCAGAGCUCGAGAACAUCUUCGCAUGCAGAGGAGGCAGGCUUCGGUGGCGCGAUAGCGCCAACGUCCUCAACCUCCAAUGCAUCCCUCCACAUGAUGGUGCCUGAAGAGCCUUGGUUUUUUG [G36C A100U A111G] | -1.04
15 | GACCAAUCUGCCCUCAGAGCUCGAGAACAUCUUCGCAUGUAGAGGAGUCAGGCUUCGGUGGCGCGAUAGCGCCAACGUCCUCAACCUCCAAUGCAUCCCACCACAUGAUGAUGCCUGAAGAGCCAUGGUUUUUUG [G36C C40U G48U U125A] | -3.35
16 | GACCAAUCUGCCCUCAGAGCUCGAGAACAUCUUCGCAUGCAGAGGAGGGAGGCUUCGGUGGCGCGAUAGCGCCAACGUCCUCAACCUCCAAUGCAUCCCACAACAUGAUGAUGCCUGAAGAGCCAUGGUUUUUUG [G36C C49G C102A U125A] | -4.36
17 | GACCAAUCUGCCCUCAGAGCUCGAGAACAUCUUCGCAUGCAGAGGAGGCAGGCUUGGGUGGCGCGAUAGCGUCAACGUCCUCAACCUCCAAUGCAUCCCACCACAUGAUGAUGCCUGAAGAGCCUUGGUUUUUUG [G36C C56G C72U] | -2.79
18 | GACCAAUCUGCCCUCAGAGCUCGAGAACAUCUUCGCAUGCAGAGGAGGCAGGCUUUGGUGGCGCGAUAGCGCCAACGUCCUCAACCUCCAAUGCAUCCCACCACAUGAUGAUGCCUGAAGAGCCUUGGUUUUUUG [G36C C56U] | -0.42
19 | GACCAAUCUGCCCUCAGAGCUCGAGAACAUCUUCGCAUGCAGAGGAGGCAGGCUUCGGUGGCGCGAUAGGGCCAACGUCCUCAACCUCCAAUGCAUCCCACCACAUGAUGAUGCCUGAAGAGCCUUGGUUUUUUG [G36C C70G] | -5.05
20 | GACCAAUCUGCCCUCAGAGCUCGAGAACAUCUUCGCAUGCAGAGGAGGCAGGCUUCGGUGGCGCGAUAGCGCCAAAGUCCUCAACCUCCAAUGCAUCCCACCACAAGAUAAUGCCUGAAGAGCCUUGGUUUUUUG [G36C C76A U106A G110A] | -4.36
21 | GACCAAUCUGCCCUCAGAGCUCGAGAACAUCUUCGCAUGCAGAGGAGGCAGGCUUCGGUGGCGCGAUAGCGCCAACGUCCUCAACCUACAAUGCAUCCCACCACAUGAUGAUGCCUGAAGAGCCUUGGUUUUUUG [G36C C88A] | -2.1

Row | Variant | polymerase ribozyme fitness (log ratio)
22 | GACCAAUCUGCCCUCAGAGCUCGAGAACAUCUUCGCAUGCAGAGGAGGCAGGCUUCGGUGGCGCGAUAGCGCCAACGUCCUCAACCUCCAAUGCAUCCCACCAUAUGAUGAUGCCUGAAGAGCCUUGGUUUUUUG [G36C C104U] | -1.1
23 | GACCAAUCUGCCCUCAGAGCUCGAGAACAUCUUCGCAUGCAUAGGAGGCAGGCUUGGGUGGCGCGAUAGCGCCCACGUCCUCAACCUCCAAUGCAUCCCACCACAUUAUGAAGACUGAAGAGCCUUGGUUUUUUG [G36C G42U C56G A74C G107U U112A C114A] | -7.54
24 | GACCAAUCUGCCCUCAGAGCUCGAGAACAUCUUCGCAUGCAGAAGAGGCAGGCUUCGGUGGCGCGAUAGCACCAGCGUCCUCAACCUCAAAUGCAUCCCACCACAUGAUGAUGCCUGAAGAGCCUUGGUUUUUUG [G36C G44A G71A A75G C89A] | -3.61
25 | GACCAAUCUGCCCUCAGAGCUCGAGAACAUCUUCGCAUGCAGAGCAGGCAGGCUUCGGUGGCGCGAUAGCGCCAACGUCCUCAACCUCCAAUGCAUCUCACCACAUGAUGAUGCCUGAAGAGCCUUGGUUUUUUG [G36C G45C C98U] | -3.33
26 | GACCAAUCUGCCCUCAGAGCUCGAGAACAUCUUCGCAUGCAGAGGAAGCAGGCUUAGGUGGCGCGAUAGCACCAACGGCCUCAACCUCCAAUGCAUCCCACCACAUGAUGAUGCUUGGAGAGCCUUGGUUUUUUG [G36C G47A C56A G71A U78G C115U A118G] | -6.68
27 | GACCAAUCUGCCCUCAGAGCUCGAGAACAUCUUCGCAUGCAGAGGAGACAGGCUUCGGUCCCGCGAUAGCGCCAACGUCCUCAACCUCCAAUGCAUCCCACCACAUGAUGAUGCCUGAAGAGCCUUGGUUUUUUG [G36C G48A G60C G61C] | -3.64
28 | GACCAAUCUGCCCUCAGAGCUCGAGAACAUCUUCGCAUGCAGAGGAGGCAGCCUUCGGUGGCGCGAUAGAGCCAACGUCCUCAACCUCCAAUGCAUCCCACCACAAGAUGAUGCCUGAAGAGCCUUGGUUUUUUG [G36C G52C C70A U106A] | -2.71
29 | GACCAAUCUGCCCUCAGAGCUCGAGAACAUCUUCGCAUGCAGAGGAGGCAGGCUUCCGUGACGCGAUAGCGCCAACGUCCUCAACCUCCAAUGCAUCCCACCACACGAUGAUUCCUGAAGAGCCUUGGUUUUUUG [G36C G57C G61A U106C G113U] | -3.7
30 | GACCAAUCUGCCCUCAGAGCUCGAGAACAUCUUCGCAUGCAGAGGAGGCAGGCUUCGGUAGCGCGAUAGCGCCAACGUCCUCAACCUCCAAUGCAUCUCACCACAUGAUGAUGCCUGAAGAGCCUUGGUUUUUUG [G36C G60A C98U] | -2.39
31 | GACCAAUCUGCCCUCAGAGCUCGAGAACAUCUUCGCAUGCAGAGGAGGCAGGCUUCGGUUGCGCGAUAGCGCCAACGUCCUCAACCUCCAAUGCAUCCCACCACAUGAUGAUGCCUGUAGAGCCUUGGUUUUUUG [G36C G60U A118U] | -0.591
32 | GACCAAUCUGCCCUCAGAGCUCGAGAACAUCUUCGCAUGCAGAGGAGGCAGGCUUCGGUGGCGCGAUAACACCAACGUCCGCAACCUACAAUCCAUCCAACCACAUGAUGAUGCCUGAAGAGUCUUGGUUUUUUG [G36C G69A G71A U81G C88A G93C C99A C123U] | -6.5
33 | GACCAAUCUGCCCUCAGAGCUCGAGAACAUCUUCGCAUGCAGAGGAGGCAGGCUUCGGUGGCGCGAUAACGCCAACGUCCUCAACCUCCAAUGCAUCCCACCACAUGAUGAGGCCUAAAGAGCCUUGGUUUUUUG [G36C G69A U112G G117A] | -6.31
34 | GACCAAUCUGCCCUCAGAGCUCGAGAACAUCUUCGCAUGCAGAGGAGGCAGGCUUCGGUGGCGCGAUAGCGCCAACGUCCUCAACCUCCAAUGCAUCCCACCACAUGAUGAUUCCUGAAGAGCCUUGGAUUUUUG [G36C G113U U129A] | -4.27
35 | GACCAAUCUGCCCUCAGAGCUCGAGAACAUCUUCGCAUGCAGAGGAGGCAGGCUACGGUGGCGCGAUAGCGCCAACGUCCUCAACCUCCAAUGCAUCCCACCACAUGAUGAUGCCUGAAGAGCCUUGGUUAUUUG [G36C U55A U131A] | -0.527
36 | GACCAAUCUGCCCUCAGAGCUCGAGAACAUCUUCGCAUGCAGAGGAGGCAGGCUUCGGAGGCGCGAUACCGCCAACGUCCUCAACCUACAAUGCAUCCCAACACAUGAUGAUGCCUGAAGAGCCUUGGUUUUUUG [G36C U59A G69C C88A C101A] | -2.89
37 | GACCAAUCUGCCCUCAGAGCUCGAGAACAUCUUCGCAUGCAGAGGAGGCAGGCUUCGGUGGCGCGAUAGCGCCAACGGCCUCAACCUCCAAUGCAUCCCACCACAUGAUGAUGCCUGAAGAGCCUUGGUUUUUUG [G36C U78G] | -1.1
38 | GACCAAUCUGCCCUCAGAGCUCGAGAACAUCUUCGUAUGCAGAGGAGGCAGGCUUCGGUGGCGCGAUAGCGCCAACGUCCUCAACCUCCAAUGCAUCCCACCACAUGAUGAUGCCUGAAGAGCCUUGGUUUUUUG [G36U] | -1.06
39 | GACCAAUCUGCCCUCAGAGCUCGAGAACAUCUUCGUAUGCAGAGGUGGCAGGCUUCGGUGGCGCGAUAGCGGCAACGUCCUAAACCCCCAAUGCAUCCCACCACAUGAUGAUGCCUGAAGAGCCUUGGUGUUUUG [G36U A46U C72G C82A U87C U130G] | -3.54
40 | GACCAAUCUGCCCUCAGAGCUCGAGAACAUCUUCGUAUGCAGAGGUGGCAGUCUUCGGUGGCGCGAUAGCGCCAACGUCCUCAACCUCCAAUGCAUCCCACCACAUGAUGAUGCCUGAAAAGCCUUGGUUUUUUG [G36U A46U G52U G120A] | -2.3
41 | GACCAAUCUGCCCUCAGAGCUCGAGAACAUCUUCGUAUGCAGAGGAGGCAGGCUUCGGUGGCGCGAUAGCGCCAACGUCCUCCACCUCCAAUGCAUCCCACCAUAGGAUGAUGCCUGAAGAGCCUUGGUUUUUUG [G36U A83C C104U U106G] | -3.91
42 | GACCAAUCUGCCCUCAGAGCUCGAGAACAUCUUCGUAUGCAGAGGAGGCAGGCUUCGGUGGCGCGAUAGCGCCAACGUCCUCAACCUCCAUUGCAUCCCACCACAUGAUGAUGCCUGAAGAGCCUUGGUUUUUUG [G36U A91U] | -2.67
